What was measured:
[1] = cited from earlier work
[2] = mice; cited from earlier work
[3] = tested on: platelets and neutrophils; details: cited from earlier work
NLRC4 inflammasome = NLRC4 inflammasome (Homo sapiens, UniProt Q9NPP4); details: cited from earlier work
[4] = esterase activity of purified recombinant proteins; format: biochemical; details: purified His-tagged recombinant protein
Description: (§1) Then recombinant proteins (EST, D6 and YqfB) having polyhystidine-tag at the N-terminus were purified by affinity chromatography, enzymatic activities of each protein were estimated.

[5] = hydrolysis of the amide bond of modified dCTP by purified recombinant proteins (amidase activity); format: biochemical; details: purified His-tagged recombinant protein, 37° C., various buffer solutions
Procedure: as §1
All three selected proteins are able to hydrolyse the amide bond of N^4-modified cytidine nucleotide. The hydrolysis reaction proceeds in various buffer solutions at 37° C. Depending on the concentration of purified protein enzymatic reaction lasts from several minutes to several hours. […] Moreover, these proteins are capable of hydrolysing not only the amide bond of modified dCTP but also the amide bond of modified cytidine.

Chain of NLRC4 inflammasome (Q9NPP4 whole entry): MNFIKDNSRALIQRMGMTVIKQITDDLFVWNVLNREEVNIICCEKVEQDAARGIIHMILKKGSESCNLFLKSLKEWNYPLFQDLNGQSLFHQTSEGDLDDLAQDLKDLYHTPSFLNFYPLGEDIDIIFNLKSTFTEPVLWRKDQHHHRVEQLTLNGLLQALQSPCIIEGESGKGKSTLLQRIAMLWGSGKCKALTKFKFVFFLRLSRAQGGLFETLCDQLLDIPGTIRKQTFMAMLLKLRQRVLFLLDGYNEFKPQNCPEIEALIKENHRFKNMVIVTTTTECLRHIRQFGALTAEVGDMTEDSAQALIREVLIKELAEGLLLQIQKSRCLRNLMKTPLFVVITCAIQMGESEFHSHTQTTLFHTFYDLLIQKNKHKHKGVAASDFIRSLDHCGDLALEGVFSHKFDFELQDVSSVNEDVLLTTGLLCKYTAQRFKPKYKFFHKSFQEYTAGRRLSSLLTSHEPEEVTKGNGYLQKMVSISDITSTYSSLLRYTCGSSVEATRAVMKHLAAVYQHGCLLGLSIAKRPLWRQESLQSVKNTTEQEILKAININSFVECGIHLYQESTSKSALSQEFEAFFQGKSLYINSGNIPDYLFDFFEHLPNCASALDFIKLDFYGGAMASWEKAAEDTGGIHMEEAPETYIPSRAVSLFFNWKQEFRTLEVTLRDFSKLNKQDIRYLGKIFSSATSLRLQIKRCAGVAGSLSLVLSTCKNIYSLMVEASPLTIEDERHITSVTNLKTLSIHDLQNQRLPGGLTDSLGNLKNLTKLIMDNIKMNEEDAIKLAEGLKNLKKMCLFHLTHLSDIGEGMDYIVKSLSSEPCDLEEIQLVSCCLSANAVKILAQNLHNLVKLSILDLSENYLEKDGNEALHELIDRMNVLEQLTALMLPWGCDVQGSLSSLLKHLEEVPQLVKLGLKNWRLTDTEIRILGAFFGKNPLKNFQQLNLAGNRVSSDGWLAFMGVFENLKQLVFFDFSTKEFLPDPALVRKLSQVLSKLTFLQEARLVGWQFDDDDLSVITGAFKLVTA

Row | Molecule | production of IL-1μ [1] | blood pressure [2] | activation of platelets and neutrophils [3] | activation of the NLRC4 inflammasome (NLRC4 inflammasome) | esterase activity [4] | hydrolysis of the amide bond of modified dCTP (activity of amidase) [5]
1 | CC(=O)Nc1ccn([C@@H]2O[C@H](CO)[C@@H](O)[C@H]2O)c(=O)n1 [N^4-acetyl-cytidine] | induces the production of IL-1μ | elevates blood pressure in mice | activates platelets and neutrophils | activates the NLRC4 inflammasome |  | 
2 | EST: recombinant protein selected from metagenomic library, polyhystidine-tag at the N-terminus; amidase and esterase (protein, N-terminal His tag; Metagenomic origin, recombinant protein selected from metagenomic library, polyhystidine-tag at the N-terminus; amidase and esterase) MSSLFIGQVFAKTPEVQTSDLTGNTTCSNLVGMVIPADEIGLPTSGATITSATLKIVEDGAIKDAEYCEVLGAIHPVDPTAPDINFQVNLPTNWNKKFLQFGGGYFNGTVRTGLGNPPAGDRKLGKNTPLAQGYVTFGSDSGNSTAPLDASFGMNDEALKNFAGDQLKKTKDVALALANVRYNAVPDQVYFAGGSEGGREGLFIVQNFPDEYDGVISVYPVLNWIPKALKDNRDAQALYKNDGEGWISPEENDLINETVFKACDSLDGVKDGIISNTSECAEKEDKILDTLSESLSEKQIEVIKSFNGPMEFDIQLANDFTTMPGYSQLQGADIGRLFGTRPIPGVPPVVSESVGHVIDEQDALMGVYSDQVIRYKITRNPDFNTLTFDPNEYREEILKASNLLDVTDPNISEFRENGGKLILVHGTEDEMVAPQGTSDYYSKLVNEFGQESLDEFAQYYLVPGFSHGGGNFTMSANLLGALDAWVVNGDVPSNLVAEDQNSATFGRTRPLCEYPTYPQYNGSGDVNSAASFTCLKADKDKDISASDIQKLIEKFEVDGEFANHGTARSLQAHLDILIKLESQERETVDQIVKHTQKFIKLLDNHKKNGKITDHAYNTLKELAESYIKQIK |  |  |  |  | behave as esterases | hydrolyse the amide bond of modified dCTP
3 | D6: recombinant protein selected from metagenomic library, polyhystidine-tag at the N-terminus; amidase and esterase (protein, N-terminal His tag; Metagenomic origin, recombinant protein selected from metagenomic library, polyhystidine-tag at the N-terminus; amidase and esterase) MEQLKFQKNWNNKCSCDFFTTIRLKGPKYTVGKELEMRIYKGGVFQNHGMIRVASLRPIQLHQINEWISRLDSGLSPEELRSELFYMYKDKVADVNKVDFYLILCERVKSKPIQNALFSTESTPAHD |  |  |  |  | behave as esterases | hydrolyse the amide bond of modified dCTP
4 | YqfB: recombinant protein selected from metagenomic library, polyhystidine-tag at the N-terminus; amidase and esterase (protein, listed as Escherichia coli, N-terminal His tag, recombinant protein selected from metagenomic library, polyhystidine-tag at the N-terminus; amidase and esterase) MQPNDITFFQRFQDDILAGRKTITIRDESESHFKTGDVLRVGRFEDDGYFCTIEVTATSTVTLDTLTEKHAEQENMTLTELKKVIADIYPGQTQFYVIEFKCL |  |  |  |  | behave as esterases | hydrolyse the amide bond of modified dCTP

From US11584772B2, “N4-modified cytidine nucleotides and their use” (VILNIUS UNIVERSITY, priority 2017, dated 2023)
